Where two headings read alike, the source gives them in different places.
Test system: M1 mAChR
Format: physicochemical
Settings: for stability relative to wild-type (retention of bound 3H-NMS), in words: BOG or DDM; for % 3H-NMS retained BOG / % loss/wt / mean % retained: 0.82% BOG, 4° C., 3 h; for % 3H-NMS retained BOG: whole E. coli BL21 cells, single culture; for % loss/wt: % loss relative to wild-type control; for mean % retained: mean of the cultures
Method: This concentration was determined by analysing wild-type M1 mAChRs expressed in the inner cell membranes of intact E. Coli strain BL21 cells. The cells were pre-labelled with the radiolabelled antagonist 3H—N-methyl scopolamine and resuspended to a pre-determined cell density (Absorbance at 600 nm=2.0) in a chosen buffer (in this case 50 mM sodium phosphate, 1 mM EDTA, pH 7.5). […] The wild-type M1 mAChRs were titrated by the addition of increasing concentrations of beta octyl glucoside dissolved in the same buffer for different times (e.g. 1 h, 2 h, 3 h, 5 h, 15 h) and at different temperatures (e.g. 4° C., 15° C.). The loss of specifically-bound radioligand was then measured after recovering the cells by centrifugation (15000×g, 15 min.). In the example, the centrifugation step was performed on duplicate 1 ml aliquots of the cells. The experiment was repeated 3 times. […] It will be appreciated that the cell density, detergent concentration and other parameters of the assay may be varied to adjust the loss of activity as appropriate.
(a) A state of in-situ destabilisation of a particular membrane protein in a particular cell membrane as a result of the addition of a particular concentration of a particular detergent, can be defined by the loss of the characteristic specific ligand binding activity of the membrane protein for a particular ligand of interest in the presence of a defined concentration of a particular detergent molecule or other solubilising agent.
A preferred version of the assay is destabilisation of a membrane protein-ligand complex in a detergent-enriched membrane. The membrane protein, either in a membrane preparation, or in intact cells in-vivo or ex-vivo, is pre-incubated with a labelled version of the ligand, the label, for instance, being a radioactive label, or a fluorescent label, and the binding step preferably being allowed to proceed to equilibrium, defined as the achievement of a time-invariant level of binding. To define membrane protein-independent, or non-specific, binding the binding step is performed with the addition of a second non-labelled ligand, called the competing ligand, having an appropriate membrane protein-specific pharmacology, at a concentration sufficient fully to occupy the binding sites of the membrane protein and thereby exclude the binding of the labelled ligand. The difference between the binding of the labelled ligand in the absence and presence of the competing ligand is defined as the specific binding of the labelled ligand. Measurement of binding requires a suitable method for separating and measuring bound ligand. Characteristically, this involves centrifugation of intact cells or membranes for a time and at a centrifugal force adequate to pellet them (for instance, 15000×g for 15 min in the case of E. coli cells, or 100,000×g for plasma membrane preparations), or filtration of a membrane suspension e.g. through a suitable filter paper such as glass fibre paper e.g. GF-B or GF-C followed by counting of radioactivity. Alternatively, it might involve the measurement of an optical signal such as enhancement of fluorescence emission in the case of fluorescent ligands.
To perform the in-situ destabilisation assay, a pre-determined concentration of the detergent or other destabilising agent of choice is mixed with a membrane or cell suspension containing the pre-labelled membrane protein in an appropriate buffer composition at a particular temperature and for a particular time, determined as described below.

| Molecule | stability relative to wild-type (retention of bound 3H-NMS), in words | % loss/wt | mean % retained [%] | further results |
| --- | --- | --- | --- | --- |
| M145A: Ala-mutant in the transmembrane region of the M1 mAChR (protein) MNTSAPPAVSPNITVLAPGKGPWQVAFIGITTGLLSLATVTGNLLVLISFKVNTELKTVNNYFLLSLACADLIIGTFSMNLYTTYLLMGHWALGTLACDLWLALDYVASNASVMNLLLISFDRYFSVTRPLSYRAKRTPRRAALAIGLAWLVSFVLWAPAILFWQYLVGERTVLAGQCYIQFLSQPIITFGTAMAAFYLPVTVMCTLYWRIYRETENRARELAALQGSETPGKGGGSSSSSERSQPGAEGSPETPPGRCCRCCRAPRLLQAYSWKEEEEEDEGSMESLTSSEGEEPGSEVVIKMPMVDPEAQAPTKQPPRSSPNTVKRPTKKGRDRAGKGQKPRGKEQLAKRKTFSLVKEKKAARTLSAILLAFILTWTPYNIMVLVSTFCKDCVPETLWELGYWLCYVNSTINPMCYALCNKAFRDTFRLLLLCRWDKRRWRKIPKRPGSVHRTPSRQC | smaller enhancements |  |  |  |
| L151A: Ala-mutant in the transmembrane region of the M1 mAChR (protein) MNTSAPPAVSPNITVLAPGKGPWQVAFIGITTGLLSLATVTGNLLVLISFKVNTELKTVNNYFLLSLACADLIIGTFSMNLYTTYLLMGHWALGTLACDLWLALDYVASNASVMNLLLISFDRYFSVTRPLSYRAKRTPRRAALMIGLAWAVSFVLWAPAILFWQYLVGERTVLAGQCYIQFLSQPIITFGTAMAAFYLPVTVMCTLYWRIYRETENRARELAALQGSETPGKGGGSSSSSERSQPGAEGSPETPPGRCCRCCRAPRLLQAYSWKEEEEEDEGSMESLTSSEGEEPGSEVVIKMPMVDPEAQAPTKQPPRSSPNTVKRPTKKGRDRAGKGQKPRGKEQLAKRKTFSLVKEKKAARTLSAILLAFILTWTPYNIMVLVSTFCKDCVPETLWELGYWLCYVNSTINPMCYALCNKAFRDTFRLLLLCRWDKRRWRKIPKRPGSVHRTPSRQC | smaller enhancements |  |  |  |
| C69A: Ala-mutant in the transmembrane region of the M1 mAChR (protein) MNTSAPPAVSPNITVLAPGKGPWQVAFIGITTGLLSLATVTGNLLVLISFKVNTELKTVNNYFLLSLAAADLIIGTFSMNLYTTYLLMGHWALGTLACDLWLALDYVASNASVMNLLLISFDRYFSVTRPLSYRAKRTPRRAALMIGLAWLVSFVLWAPAILFWQYLVGERTVLAGQCYIQFLSQPIITFGTAMAAFYLPVTVMCTLYWRIYRETENRARELAALQGSETPGKGGGSSSSSERSQPGAEGSPETPPGRCCRCCRAPRLLQAYSWKEEEEEDEGSMESLTSSEGEEPGSEVVIKMPMVDPEAQAPTKQPPRSSPNTVKRPTKKGRDRAGKGQKPRGKEQLAKRKTFSLVKEKKAARTLSAILLAFILTWTPYNIMVLVSTFCKDCVPETLWELGYWLCYVNSTINPMCYALCNKAFRDTFRLLLLCRWDKRRWRKIPKRPGSVHRTPSRQC | reductions |  |  |  |
| I119A: Ala-mutant in the transmembrane region of the M1 mAChR (protein) MNTSAPPAVSPNITVLAPGKGPWQVAFIGITTGLLSLATVTGNLLVLISFKVNTELKTVNNYFLLSLACADLIIGTFSMNLYTTYLLMGHWALGTLACDLWLALDYVASNASVMNLLLASFDRYFSVTRPLSYRAKRTPRRAALMIGLAWLVSFVLWAPAILFWQYLVGERTVLAGQCYIQFLSQPIITFGTAMAAFYLPVTVMCTLYWRIYRETENRARELAALQGSETPGKGGGSSSSSERSQPGAEGSPETPPGRCCRCCRAPRLLQAYSWKEEEEEDEGSMESLTSSEGEEPGSEVVIKMPMVDPEAQAPTKQPPRSSPNTVKRPTKKGRDRAGKGQKPRGKEQLAKRKTFSLVKEKKAARTLSAILLAFILTWTPYNIMVLVSTFCKDCVPETLWELGYWLCYVNSTINPMCYALCNKAFRDTFRLLLLCRWDKRRWRKIPKRPGSVHRTPSRQC | reductions |  |  |  |
| L65G: M1 mAChR mutant L65G recovered by randomisation of the codon for position 65 (protein) MNTSAPPAVSPNITVLAPGKGPWQVAFIGITTGLLSLATVTGNLLVLISFKVNTELKTVNNYFLGSLACADLIIGTFSMNLYTTYLLMGHWALGTLACDLWLALDYVASNASVMNLLLISFDRYFSVTRPLSYRAKRTPRRAALMIGLAWLVSFVLWAPAILFWQYLVGERTVLAGQCYIQFLSQPIITFGTAMAAFYLPVTVMCTLYWRIYRETENRARELAALQGSETPGKGGGSSSSSERSQPGAEGSPETPPGRCCRCCRAPRLLQAYSWKEEEEEDEGSMESLTSSEGEEPGSEVVIKMPMVDPEAQAPTKQPPRSSPNTVKRPTKKGRDRAGKGQKPRGKEQLAKRKTFSLVKEKKAARTLSAILLAFILTWTPYNIMVLVSTFCKDCVPETLWELGYWLCYVNSTINPMCYALCNKAFRDTFRLLLLCRWDKRRWRKIPKRPGSVHRTPSRQC |  | 1.06 | 44 | % 3H-NMS retained BOG (listed as L65 G 1): 49%; % 3H-NMS retained BOG (listed as L65 G 2): 39% |
| L65A + M145A: M1 mAChR double mutant (protein) MNTSAPPAVSPNITVLAPGKGPWQVAFIGITTGLLSLATVTGNLLVLISFKVNTELKTVNNYFLASLACADLIIGTFSMNLYTTYLLMGHWALGTLACDLWLALDYVASNASVMNLLLISFDRYFSVTRPLSYRAKRTPRRAALAIGLAWLVSFVLWAPAILFWQYLVGERTVLAGQCYIQFLSQPIITFGTAMAAFYLPVTVMCTLYWRIYRETENRARELAALQGSETPGKGGGSSSSSERSQPGAEGSPETPPGRCCRCCRAPRLLQAYSWKEEEEEDEGSMESLTSSEGEEPGSEVVIKMPMVDPEAQAPTKQPPRSSPNTVKRPTKKGRDRAGKGQKPRGKEQLAKRKTFSLVKEKKAARTLSAILLAFILTWTPYNIMVLVSTFCKDCVPETLWELGYWLCYVNSTINPMCYALCNKAFRDTFRLLLLCRWDKRRWRKIPKRPGSVHRTPSRQC |  | 0.34 | 82 | % 3H-NMS retained BOG (listed as L65A + M145A 1): 91%; % 3H-NMS retained BOG (listed as L65A + M145A 2): 73% |
| L65A + L151A: M1 mAChR double mutant (protein) MNTSAPPAVSPNITVLAPGKGPWQVAFIGITTGLLSLATVTGNLLVLISFKVNTELKTVNNYFLASLACADLIIGTFSMNLYTTYLLMGHWALGTLACDLWLALDYVASNASVMNLLLISFDRYFSVTRPLSYRAKRTPRRAALMIGLAWAVSFVLWAPAILFWQYLVGERTVLAGQCYIQFLSQPIITFGTAMAAFYLPVTVMCTLYWRIYRETENRARELAALQGSETPGKGGGSSSSSERSQPGAEGSPETPPGRCCRCCRAPRLLQAYSWKEEEEEDEGSMESLTSSEGEEPGSEVVIKMPMVDPEAQAPTKQPPRSSPNTVKRPTKKGRDRAGKGQKPRGKEQLAKRKTFSLVKEKKAARTLSAILLAFILTWTPYNIMVLVSTFCKDCVPETLWELGYWLCYVNSTINPMCYALCNKAFRDTFRLLLLCRWDKRRWRKIPKRPGSVHRTPSRQC |  | 0.51 | 73 | % 3H-NMS retained BOG (listed as L65A + L151A 1): 70%; % 3H-NMS retained BOG (listed as L65A + L151A 2): 76% |
